doi:10.1101/2022.11.30.518474 (bioRxiv, 2022)

Biological target: the molecule itself
Test: SEC; purified recombinant protein (40 μg in 50 μl) on a TOSOH G2000 SWXL column in hexokinase buffer (20 mM HEPES, 5 mM Mg acetate, 100 mM NaCl, 0.5 mM EDTA, 0.5 mM DTT) without glucose, no ATP, 1 mL/min

B1: Recombinant Hxk2, wild type, C-terminal 6-histidine tag, from E. coli (enzyme, S. cerevisiae, UniProt P04807 1-486, looked up)
chain: MVHLGPKKPQARKGSMADVPKELMQQIENFEKIFTVPTETLQAVTKHFISELEKGLSKKGGNIPMIPGWVMDFPTGKESGDFLAIDLGGTNLRVVLVKLGGDRTFDTTQSKYRLPDAMRTTQNPDELWEFIADSLKAFIDEQFPQGISEPIPLGFTFSFPASQNKINEGILQRWTKGFDIPNIENHDVVPMLQKQITKRNIPIEVVALINDTTGTLVASYYTDPETKMGVIFGTGVNGAYYDVCSDIEKLQGKLSDDIPPSAPMAINCEYGSFDNEHVVLPRTKYDITIDEESPRPGQQTFEKMSSGYYLGEILRLALMDMYKQGFIFKNQDLSKFDKPFVMDTSYPARIEEDPFENLEDTDDLFQNEFGINTTVQERKLIRRLSELIGARAARLSVCGIAAICQKRGYKTGHIAADGSVYNRYPGFKEKAANALKDIYGWTQTSLDDYPIKIVPAEDGSGAGAAVIAALAQKRIAEGKSVGIIGA
notes: Hexokinase 2 (Hxk2) of S. cerevisiae; also called WT Hxk2; wild-type Hxk2; source: E. coli (pET14b), purified (Ni-NTA)
- stoichiometry N: 2
